This series deals with Escherichia coli TOP10. The series can be described thus: shrunken log2 fold change of peptide-encoding DNA abundance (4.5 h post-induction vs induction); higher = less antimicrobial activity (less host growth inhibition). The note with it: time post-induction: 4.5 h; library: site-saturation at positions 5, 18, 19, 20.
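Also: peptides expressed intracellularly from a pBAD plasmid library in pooled LB shake-flask culture, induced with 0.3% L-arabinose, DNA abundance read by NGS, three biological replicates, DESeq2 with apeglm shrinkage.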

For RRIRRRPPRLPRPRPRPTLQPRP, the “shrunken log2 fold change” value was 0.678.
For the sequence RRIRTRPPRLPRPRPRPLDPPRP, the “shrunken log2 fold change” value was -0.382.
For RRIRIRPPRLPRPRPRPNCCPRP, the “shrunken log2 fold change” value was -0.0793.
For the sequence RRIRARPPRLPRPRPRPLGTPRP, the “shrunken log2 fold change” value was determined as 0.407.
The figure for RRIRRRPPRLPRPRPRPWNNPRP is -0.173.
Consider RRIRERPPRLPRPRPRPTPDPRP, for which the “shrunken log2 fold change” value came to 0.116.
Turning to RRIRPRPPRLPRPRPRPANRPRP, the “shrunken log2 fold change” value was -0.125.
Turning to RRIRGRPPRLPRPRPRPQTGPRP, the “shrunken log2 fold change” value turned out to be 0.162.
For the sequence RRIRRRPPRLPRPRPRPTVEPRP, the “shrunken log2 fold change” value was found to be 1.39.
The figure for RRIRKRPPRLPRPRPRPIKLPRP is -0.243; for RRIRIRPPRLPRPRPRPSWYPRP it is -0.604; for RRIRWRPPRLPRPRPRPHKYPRP it is -0.652.
Take RRIRPRPPRLPRPRPRPVTNPRP: the “shrunken log2 fold change” value is -0.299.
In the case of RRIRIRPPRLPRPRPRPMCAPRP, the “shrunken log2 fold change” value is -0.127.
The figure for RRIRWRPPRLPRPRPRPFNYPRP is -0.533.
The figure for RRIRSRPPRLPRPRPRPLCWPRP is 0.131; for RRIRARPPRLPRPRPRPDCAPRP it is 0.826; for RRIRGRPPRLPRPRPRPNFVPRP it is -0.0668.
In the case of RRIRNRPPRLPRPRPRPMIGPRP, the “shrunken log2 fold change” value was -0.536.
In the case of RRIRHRPPRLPRPRPRPWNGPRP, the “shrunken log2 fold change” value is -0.228.
Turning to RRIRERPPRLPRPRPRPHMEPRP, the “shrunken log2 fold change” value was -0.118.
On to RRIRARPPRLPRPRPRPRMSPRP, for which the “shrunken log2 fold change” value was -0.186.
The figure for RRIRPRPPRLPRPRPRPWYIPRP is -0.472; for RRIRFRPPRLPRPRPRPHYMPRP it is -0.737.
With RRIRGRPPRLPRPRPRPGIQPRP, the “shrunken log2 fold change” value came out at 0.591.
With RRIRQRPPRLPRPRPRPQHGPRP, the “shrunken log2 fold change” value was -0.000236.
Turning to RRIRLRPPRLPRPRPRPMLMPRP, the “shrunken log2 fold change” value was -0.177.
The figure for RRIRFRPPRLPRPRPRPLTNPRP is 0.0389.
The figure for RRIRKRPPRLPRPRPRPTLLPRP is 0.083; for RRIRCRPPRLPRPRPRPRHFPRP it is -0.374; for RRIRMRPPRLPRPRPRPFDDPRP it is 0.243.
With RRIRSRPPRLPRPRPRPGMGPRP, the “shrunken log2 fold change” value was 0.0599.
For the sequence RRIRRRPPRLPRPRPRPNSIPRP, the “shrunken log2 fold change” value is -0.236.
With RRIRERPPRLPRPRPRPVQMPRP, the “shrunken log2 fold change” value was -0.115.
As for RRIRVRPPRLPRPRPRPHDNPRP, the “shrunken log2 fold change” value was -0.445.
As for RRIRCRPPRLPRPRPRPQSKPRP, the “shrunken log2 fold change” value was -0.448.
The figure for RRIRCRPPRLPRPRPRPTYAPRP is 0.125; for RRIRMRPPRLPRPRPRPNSHPRP it is -0.451; for RRIRQRPPRLPRPRPRPWMSPRP it is -0.0167.
For the sequence RRIRCRPPRLPRPRPRPRNQPRP, the “shrunken log2 fold change” value was -0.0402.
The figure for RRIRFRPPRLPRPRPRPGPVPRP is 0.266.
RRIRCRPPRLPRPRPRPAVLPRP: the “shrunken log2 fold change” value was -0.218.
The figure for RRIRYRPPRLPRPRPRPAQMPRP is 0.0755; for RRIRFRPPRLPRPRPRPPAPPRP it is 1.07.
Take RRIRCRPPRLPRPRPRPPYQPRP: the “shrunken log2 fold change” value was -0.138.
As to RRIRWRPPRLPRPRPRPAGMPRP, the “shrunken log2 fold change” value is 0.321.
In the case of RRIRNRPPRLPRPRPRPEFRPRP, the “shrunken log2 fold change” value is -0.107.
As to RRIRARPPRLPRPRPRPKQPPRP, the “shrunken log2 fold change” value amounted to 0.516.
As for RRIRNRPPRLPRPRPRPLVCPRP, the “shrunken log2 fold change” value is -0.201.
The figure for RRIRYRPPRLPRPRPRPGIMPRP is 0.0185; for RRIRYRPPRLPRPRPRPHVCPRP it is -0.358.
RRIRWRPPRLPRPRPRPEDLPRP: the “shrunken log2 fold change” value was -0.0249.
For RRIRDRPPRLPRPRPRPKGYPRP, the “shrunken log2 fold change” value was -0.097.
As for RRIRHRPPRLPRPRPRPQGMPRP, the “shrunken log2 fold change” value is -0.201.
RRIRNRPPRLPRPRPRPSITPRP: the “shrunken log2 fold change” value was -0.656.
The figure for RRIRYRPPRLPRPRPRPYSMPRP is -0.0134; for RRIRGRPPRLPRPRPRPCNYPRP it is -0.11.
For RRIRHRPPRLPRPRPRPKEHPRP, the “shrunken log2 fold change” value was 0.0812.
In the case of RRIRARPPRLPRPRPRPIQIPRP, the “shrunken log2 fold change” value is -0.103.
On to RRIRKRPPRLPRPRPRPTYAPRP, for which the “shrunken log2 fold change” value came out at 0.431.
Regarding RRIRKRPPRLPRPRPRPQDAPRP, the “shrunken log2 fold change” value came to 0.027.
The figure for RRIRGRPPRLPRPRPRPTHMPRP is 0.745; for RRIRSRPPRLPRPRPRPNWMPRP it is -0.0249.
As to RRIRNRPPRLPRPRPRPFGKPRP, the “shrunken log2 fold change” value was -0.0788.
The figure for RRIRRRPPRLPRPRPRPSNDPRP is -0.162; for RRIRHRPPRLPRPRPRPQRRPRP it is 0.0777.
The figure for RRIRIRPPRLPRPRPRPMPFPRP is 0.0123; for RRIRGRPPRLPRPRPRPEKIPRP it is 0.672; for RRIRNRPPRLPRPRPRPDCAPRP it is 0.315.
The figure for RRIRHRPPRLPRPRPRPKFCPRP is -0.132.
In the case of RRIRKRPPRLPRPRPRPKDLPRP, the “shrunken log2 fold change” value came to 0.0142.
Take RRIRSRPPRLPRPRPRPDFFPRP: the “shrunken log2 fold change” value was -0.0547.
The figure for RRIRMRPPRLPRPRPRPMFYPRP is -0.127.
Consider RRIRMRPPRLPRPRPRPEQKPRP, for which the “shrunken log2 fold change” value was -0.0148.
On to RRIRWRPPRLPRPRPRPWTHPRP, for which the “shrunken log2 fold change” value is -0.11.
Regarding RRIRSRPPRLPRPRPRPFNIPRP, the “shrunken log2 fold change” value is -0.109.
With RRIRWRPPRLPRPRPRPYINPRP, the “shrunken log2 fold change” value is -0.536.
As for RRIRERPPRLPRPRPRPRYRPRP, the “shrunken log2 fold change” value is -0.198.
Regarding RRIRGRPPRLPRPRPRPLSLPRP, the “shrunken log2 fold change” value came to 0.419.
Turning to RRIRYRPPRLPRPRPRPLMEPRP, the “shrunken log2 fold change” value was -0.318.
On to RRIRYRPPRLPRPRPRPFYVPRP, for which the “shrunken log2 fold change” value was -0.602.
On to RRIRTRPPRLPRPRPRPSFWPRP, for which the “shrunken log2 fold change” value stood at 0.277.
In the case of RRIRKRPPRLPRPRPRPVMIPRP, the “shrunken log2 fold change” value is 0.0956.
The figure for RRIRGRPPRLPRPRPRPQKEPRP is 0.0631; for RRIRERPPRLPRPRPRPSENPRP it is -0.293; for RRIRERPPRLPRPRPRPGSEPRP it is -0.0924.
Take RRIRVRPPRLPRPRPRPNFTPRP: the “shrunken log2 fold change” value was determined as 0.0054.
The figure for RRIRYRPPRLPRPRPRPQGDPRP is -0.074; for RRIRVRPPRLPRPRPRPASGPRP it is -0.188.
RRIRYRPPRLPRPRPRPNAPPRP: the “shrunken log2 fold change” value was -0.228.
For RRIRGRPPRLPRPRPRPWMNPRP, the “shrunken log2 fold change” value was determined as 0.106.
As to RRIRRRPPRLPRPRPRPGTQPRP, the “shrunken log2 fold change” value is 0.0536.
Turning to RRIRFRPPRLPRPRPRPRCVPRP, the “shrunken log2 fold change” value is -0.0244.
On to RRIRGRPPRLPRPRPRPFFGPRP, for which the “shrunken log2 fold change” value was found to be 0.188.
For RRIRKRPPRLPRPRPRPFRDPRP, the “shrunken log2 fold change” value was found to be 0.222.
Consider RRIRCRPPRLPRPRPRPTHAPRP, for which the “shrunken log2 fold change” value came out at 0.975.
Consider RRIRHRPPRLPRPRPRPALNPRP, for which the “shrunken log2 fold change” value was determined as 0.0444.
As to RRIRARPPRLPRPRPRPSEHPRP, the “shrunken log2 fold change” value is -0.301.
As to RRIRRRPPRLPRPRPRPRHNPRP, the “shrunken log2 fold change” value was -0.14.
For RRIRVRPPRLPRPRPRPDQNPRP, the “shrunken log2 fold change” value is -0.0845.
As for RRIRRRPPRLPRPRPRPDVLPRP, the “shrunken log2 fold change” value was found to be 0.0203.
As for RRIRSRPPRLPRPRPRPSLDPRP, the “shrunken log2 fold change” value was -0.0696.
For RRIRSRPPRLPRPRPRPFRWPRP, the “shrunken log2 fold change” value is 0.119.
In the case of RRIRPRPPRLPRPRPRPFSMPRP, the “shrunken log2 fold change” value is -0.161.
For the sequence RRIRVRPPRLPRPRPRPYEVPRP, the “shrunken log2 fold change” value was determined as 0.0284.
Take RRIRTRPPRLPRPRPRPSGAPRP: the “shrunken log2 fold change” value stood at 0.251.
The figure for RRIRARPPRLPRPRPRPVTVPRP is 2.71.
In the case of RRIRFRPPRLPRPRPRPVLAPRP, the “shrunken log2 fold change” value turned out to be 0.239.
The figure for RRIRRRPPRLPRPRPRPDVEPRP is 0.0547.
Consider RRIRKRPPRLPRPRPRPIPGPRP, for which the “shrunken log2 fold change” value was -0.0379.
The figure for RRIRHRPPRLPRPRPRPQRYPRP is -0.0589; for RRIRFRPPRLPRPRPRPRGKPRP it is 0.734; for RRIRQRPPRLPRPRPRPCYPPRP it is -1.5.
With RRIRWRPPRLPRPRPRPWEPPRP, the “shrunken log2 fold change” value is -0.0178.
With RRIRMRPPRLPRPRPRPSNFPRP, the “shrunken log2 fold change” value is -0.192.
In the case of RRIRGRPPRLPRPRPRPIPQPRP, the “shrunken log2 fold change” value came to 0.358.
Consider RRIRTRPPRLPRPRPRPGQMPRP, for which the “shrunken log2 fold change” value was 0.0303.
The figure for RRIRARPPRLPRPRPRPIRRPRP is 0.24.
The figure for RRIRCRPPRLPRPRPRPAAHPRP is 0.37; for RRIRHRPPRLPRPRPRPYSRPRP it is -0.0123.
Consider RRIRIRPPRLPRPRPRPSYFPRP, for which the “shrunken log2 fold change” value was -0.83.
Turning to RRIRMRPPRLPRPRPRPTHNPRP, the “shrunken log2 fold change” value stood at 0.275.
On to RRIRIRPPRLPRPRPRPAEHPRP, for which the “shrunken log2 fold change” value was found to be 0.0405.
The figure for RRIRIRPPRLPRPRPRPAFNPRP is -0.0935; for RRIRTRPPRLPRPRPRPRCYPRP it is -0.429.

These data come from the supplement of paper PMC9112550, “Optimization of the antimicrobial peptide Bac7 by deep mutational scanning” (BMC Biology, 2022).
